Measurements: patent publication US20240400654A1
Positions count from the first letter of the chain named. In names and notes the source's numbering stands. Several values for one entry are separate records, joined by “and”; a condition that tells them apart may be missing. Identical values can stand only once.

B1: KB001 parental mouse Fab FASEBA variant VH G99Y (Fab, V domains shown)
VH: EVQLKQSGPGLVAPSQSLSITCTVSGFSLSIYSVHWVRQPPGKGLEWLGMIWGGGSSDYNSALKSRLSISKDNSKSQVFLKMNSLQTDDTAMYYCARNYNFYAMDYWGQGTSVTVSS
VL: QIVLTQSPAIMSASLGERVTMTCTASSSVSSSFLHWYQQKPGSSPQLWIYSTSNLASGVPARFSGSGSGTSYSLTISSMEAEDAATYYCHQYHHSPYIYTFGGGTKLEIK
B2: KB001 parental mouse Fab FASEBA variant VH S65R (Fab, V domains shown)
VH: B1 VH with S65R, Y99G
VL: B1 VL
B3: KB001 parental mouse Fab FASEBA variant VH A103C (Fab, V domains shown)
VH: B1 VH with Y99G, A103C
VL: B1 VL
B4: KB001 parental mouse Fab FASEBA variant VH N100F (Fab, V domains shown)
VH: B1 VH with Y99G, N100F
VL: B1 VL
B5: KB001 parental mouse Fab FASEBA variant VH Y106Q (Fab, V domains shown)
VH: B1 VH with Y99G, Y106Q
VL: B1 VL
B6: KB001 parental mouse Fab FASEBA variant VH F101S (Fab, V domains shown)
VH: B1 VH with Y99G, F101S
VL: B1 VL
B7: KB001 parental mouse Fab FASEBA variant VH N100S (Fab, V domains shown)
VH: B1 VH with Y99G, N100S
VL: B1 VL
B8: KB001 parental mouse Fab FASEBA variant VH S65G (Fab, V domains shown)
VH: B1 VH with S65G, Y99G
VL: B1 VL
B9: KB001 parental mouse Fab FASEBA variant VH F101W (Fab, V domains shown)
VH: B1 VH with Y99G, F101W
VL: B1 VL
B10: KB001 parental mouse Fab FASEBA variant VH N100K (Fab, V domains shown)
VH: B1 VH with Y99G, N100K
VL: B1 VL
B11: KB001 parental mouse Fab FASEBA variant VH G99S (Fab, V domains shown)
VH: B1 VH with Y99S
VL: B1 VL
B12: KB001 parental mouse Fab FASEBA variant VH Y106I (Fab, V domains shown)
VH: B1 VH with Y99G, Y106I
VL: B1 VL
B13: KB001 parental mouse Fab FASEBA variant VH A103I (Fab, V domains shown)
VH: B1 VH with Y99G, A103I
VL: B1 VL
B14: KB001 parental mouse Fab FASEBA variant VH N100A (Fab, V domains shown)
VH: B1 VH with Y99G, N100A
VL: B1 VL
B15: KB001 parental mouse Fab FASEBA variant VH N100I (Fab, V domains shown)
VH: B1 VH with Y99G, N100I
VL: B1 VL
B16: KB001 parental mouse Fab FASEBA variant VH G99A (Fab, V domains shown)
VH: B1 VH with Y99A
VL: B1 VL
B17: KB001 parental mouse Fab FASEBA variant VH S65P (Fab, V domains shown)
VH: B1 VH with S65P, Y99G
VL: B1 VL
B18: KB001 parental mouse Fab FASEBA variant VH S65F (Fab, V domains shown)
VH: B1 VH with S65F, Y99G
VL: B1 VL
B19: KB001 parental mouse Fab FASEBA variant VH F101L (Fab, V domains shown)
VH: B1 VH with Y99G, F101L
VL: B1 VL
B20: KB001 parental mouse Fab FASEBA variant VH N100Y (Fab, V domains shown)
VH: B1 VH with Y99G, N100Y
VL: B1 VL
B21: KB001 parental mouse Fab FASEBA variant VH A103G (Fab, V domains shown)
VH: B1 VH with Y99G, A103G
VL: B1 VL

Columns and labels:
[1] = target: HRgpA-6H (Porphyromonas gingivalis) (UniProt P28784); experiment: ELISA, FASEBA screening, coated HRgpA-6H; variant OD over parental WT Fab OD
[2] = target: HRgpA-6H (Porphyromonas gingivalis) (UniProt P28784); experiment: ELISA, FASEBA screening, coated HRgpA-6H 0.0625 ug/ml

Chain of UniProt P28784 (P28784 228-860): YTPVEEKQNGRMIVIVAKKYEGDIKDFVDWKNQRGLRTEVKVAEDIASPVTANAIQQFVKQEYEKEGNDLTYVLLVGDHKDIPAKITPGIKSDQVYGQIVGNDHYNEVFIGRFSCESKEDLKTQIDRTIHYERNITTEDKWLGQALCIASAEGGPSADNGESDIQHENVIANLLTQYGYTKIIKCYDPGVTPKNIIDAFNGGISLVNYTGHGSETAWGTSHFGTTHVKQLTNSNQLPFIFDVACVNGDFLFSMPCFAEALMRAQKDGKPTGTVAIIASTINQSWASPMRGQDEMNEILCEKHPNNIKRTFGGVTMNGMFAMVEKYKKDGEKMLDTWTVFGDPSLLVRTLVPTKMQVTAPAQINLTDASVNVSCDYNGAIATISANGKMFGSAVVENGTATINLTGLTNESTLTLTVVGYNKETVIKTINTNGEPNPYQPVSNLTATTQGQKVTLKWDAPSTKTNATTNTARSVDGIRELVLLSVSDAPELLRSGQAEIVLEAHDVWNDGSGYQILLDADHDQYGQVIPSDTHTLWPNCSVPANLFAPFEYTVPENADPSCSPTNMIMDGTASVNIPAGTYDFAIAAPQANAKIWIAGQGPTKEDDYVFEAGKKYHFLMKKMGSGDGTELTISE

Binder | Ratio OD(Variant)/OD(WT) [1] | OD450 nm [2]
B1 | 0.965 | 0.769
B2 | 0.96 | 0.794
B3 | 0.893 | 0.77
B4 | 0.92 | 0.779
B5 | 0.999 | 0.768
B6 | 0.8 and 0.856 | 0.678 and 0.725
B7 | 0.943 and 0.996 and 0.95 | 0.799 and 0.844 and 0.805
B8 | 0.998 | 0.825
B9 | 0.974 and 0.978 and 0.947 | 0.825 and 0.828 and 0.802
B10 | 0.946 and 0.934 | 0.801 and 0.791
B11 | 0.965 and 0.927 and 0.966 | 0.769 and 0.739 and 0.77
B12 | 0.949 and 0.947 and 0.993 | 0.73 and 0.728 and 0.764
B13 | 0.806 and 0.804 | 0.695 and 0.693
B14 | 0.955 | 0.809
B15 | 0.94 and 0.983 | 0.796 and 0.833
B16 | 0.928 | 0.74
B17 | 0.984 | 0.814
B18 | 0.895 | 0.74
B19 | 0.804 | 0.681
B20 | 0.894 and 0.926 and 0.825 | 0.757 and 0.784 and 0.699
B21 | 0.945 and 0.933 and 0.876 | 0.815 and 0.804 and 0.755
